{
  "source": "patent US11492376B2",
  "about": "“Toxoplasma gondii GRA8-derived recombinant peptides and composition for preventing or treating cancer comprising the same” (Industry—University Cooperation Foundation Hanyang …, priority 2019, dated 2022)",
  "molecules": {"B1": {"name": "(GLAGLAGLLGLEGLLGLPLGLLEGLWLGLELEGN)2-GG-ATATTTTTTR-GG-YRFTVQTTQN (protein)", "chain": "GLAGLAGLLGLEGLLGLPLGLLEGLWLGLELEGNGLAGLAGLLGLEGLLGLPLGLLEGLWLGLELEGNGGATATTTTTTRGGYRFTVQTTQN", "modifications": "His tag; rATRAM-G8-M/AS"}},
  "key": {"HCT116 cells [1]": {"system": "HCT116 cells", "test": "MTT assay of cell viability, HCT116 cells", "format": "cell-based, human", "experimental": "FIGS. 1A, 1B and 1C: confirms that rGRA8 treatment increases HCT116 cell death by mitochondria pathways [(A and B). Various cancer cells were incubated with WT rGRA8 (20 μg/ml) and its mutants for indicated times and then cell viability was measured by MTT analysis (upper) and αATP5A1, αSIRT3 or αActin immunoblotting (lower) was performed. […] The cells were incubated with WT rGRA8 for indicated times and subjected to IP with αLys-AC or αHis and IB with αATP5A1, αATP5C1, αSIRT3, αPGC-1, αPKCα or αActin. Data represents five independent experiments with similar results. Significant differences were determined by comparison with rVector treatment (** P<0.01; *** P<0.001)].\n(§1) FIGS. 4A, 4B, 4C, 4D and 4E show HCT116 cell death by rATRAM-GRA8-M/AS-induced mitochondrial activation [(A and B) HCT116 cells were incubated with WT rGRA8 or rATRAM-GRA8-M/AS and its mutants for indicated times, and then cell viability was measured with an MTT assay. […] The cells were stimulated with rATRAM-GRA8-M/AS for 1 day and subjected to enzymatic activity of OXPHOS V, and (C) MitoTracker fluorescence signals were assessed by flow cytometry. (D) A bar graph indicates a mitochondrial mass (MFI), and (E) the mtDNA content of BMDM was measured by quantitative real-time PCR. The mtDNA content was normalized by nuclear DNA. Significant differences were determined by comparison with control treatment (** P<0.01; *** P<0.001). Data represents five independent experiments with similar results].\nAs described in Non-Patent Document 1, the cell viability for a non-treated group was measured by an MTT assay. After incubation for an indicated time, 5 mg/ml of a 3-(4,5-dimethyl thiazol-2-yl)-2,5-diphenyltetrazoliumbromide (MTT) solution was added to a medium, and the cells were further incubated for 4 hours. Subsequently, all of the medium was removed, the same volume of a dimethyl sulfoxide (DMSO) solution was added for 15 minutes to dissolve formazan. Using a UV/VIS spectrophotometer, each well of a plate was measured at 540 nm to measure relative cell viability."}, "complex V OXPHOS": {"molecular_target": "T1, complex V OXPHOS (Homo sapiens, UniProt P25705)", "T1 construct": "rATRAM-GRA8-M/AS enhanced complex V OXPHOS activity, mitochondrial mass and mitochondrial DNA content via SIRT3 and PKCα in HCT116 cells; endogenous in cells; host or cells: HCT116 cells", "test": "Mitochondria complex V OXPHOS activity assay in HCT116 cells", "format": "cell-based", "experimental": "as §1\nThe activity of complex V was measured using a MitoTox Complex V OXPHOS Activity Microplate Assay kit manufactured by Abcam (ab109907, MA, Cambridge) according to the manufacturer's instructions. The activity of complex V was measured by monitoring the change in absorbance at 340 nm for 1 hour at 30° C. Oligomycin (Sigma, 04876) was used as a positive control for the assay."}, "HCT116 cells [2]": {"system": "HCT116 cells", "test": "MitoTracker flow cytometry of mitochondrial mass in HCT116 cells", "format": "cell-based, human", "details": "1 day, via SIRT3 and PKCα", "experimental": "as §1"}, "[3]": {"test": "Pharmacokinetics and drug distribution in HCT116 tumor-bearing mice (His immunoblotting of organs)", "format": "in vivo, BALB/c mouse", "experimental": "The […] were administered into the mouse by intraperitoneal injection once (left) or twice (right), and then the mouse was sacrificed on day 5. His expression was evaluated by immunoblotting (IB) in various organs from a mouse. The whole cell lysate was used for IB with anti-actin. Data represents four independent experiments with similar results. (B) The schematic diagram of an rGRA8 WT (upper)-treated xenograft model. […] The length and width of the tumors were measured using calipers, and a tumor volume was calculated every third day for 30 days. Individual tumor volumes from each mouse in each group were averaged and graphed over days after inoculation. Statistical significance was determined by two-way analysis of variance (ANOVA) with a Tukey's post-test; * P<0.05, *** P<0.001, compared with rVector. Each group included 10 mice. Data represents two independent experiments with similar results."}, "HCT116 xenografts": {"system": "HCT116 xenografts", "test": "HCT116 xenograft mouse model, antitumor activity", "format": "in vivo, nude mouse"}, "ATP5A1, SIRT3 and ATP5C1": {"system": "ATP5A1, SIRT3 and ATP5C1", "test": "Target binding and OXPHOS profile in xenograft tumor lysates", "format": "in vivo, nude mouse", "details": "day 15", "experimental": "The length and width of a tumor were measured using calipers every third day for 30 days. On day 15 after administration, the mice were euthanized, and the interaction with GRA8, acetylation levels of ATP5A1 or expression of OXPHOS was analyzed (A, lower). The representative images of tumors from mice treated with rATRAM-GRA8-M/AS or mutants on day 15 (right). […] Significant differences (* P<0.05; ** P<0.01; *** P<0.001) were determined by comparison with rVector. Each group included 10 mice. Data represents two independent experiments with similar results],\nFor immunoprecipitation, cells were obtained, and then lysed in an NP-40 buffer supplemented with a complete protease inhibitor cocktail (Roche). After pre-purification with A/G agarose beads at 4° C. for 1 hour, a whole cell lysate was used for immunoprecipitation with indicated antibodies. Generally, 1 to 4 μg of commercial antibodies were added to 1 ml of the cell lysate, and incubated at 4° C. for 8 to 12 hours. After the addition of the protein A/G agarose beads for 6 hours, the immunoprecipitate was washed with a lysis buffer several times and heated for 5 minutes to be eluted with an SDS loading buffer.\nFor immunoblotting, polypeptides were subjected to electrophoresis (PAGE) with an SDS-polyacrylamide gel, and then transferred to a PVDF membrane (Bio-Rad) for separation. Immunodetection was performed with a specific antibody. Antibody binding was visualized by chemiluminescence (ECL; Millipore) and detected by a Vilber chemiluminescence analyzer (Fusion SL 3; Vilber Lourmat)."}, "[4]": {"details": "tumor-bearing mice, intraperitoneal injection"}},
  "data": [
    {"molecule": "B1", "values": [
      {"measurement": "fold improvement of IC50 compared with rGRA8 (cell death of cancer cell line)", "setting": "HCT116 cells [1]; HCT116 cells", "result": 200, "unit": "fold"},
      {"measurement": "IC50 (HCT116 cell death)", "setting": "HCT116 cells [1]; HCT116 cells, MTT (FIG. 4A)", "result": 0.1, "unit": "mg/L"},
      {"measurement": "fold improvement of IC50 compared with rGRA8 (cell death of cancer cell line)", "setting": "HCT116 cells [1]; HCT116 cells, listed as rATRAM-G8-M/AS", "result": "approximately 200 fold"},
      {"measurement": "cell death in HCT116 cells", "setting": "HCT116 cells [1]; dose response, MTT (FIG. 4A)", "result": "induced cell death in HCT116 cells in a dose-dependent manner"},
      {"measurement": "complex V OXPHOS activity", "setting": "complex V OXPHOS; HCT116 cells, 1 day, via SIRT3 and PKCα", "result": "enhanced"},
      {"measurement": "mitochondrial activity (Oxphos V activity, mitochondrial mass and ATP production) in cancer cells", "setting": "complex V OXPHOS; summary statement, FIG. 4", "result": "induced"},
      {"measurement": "mitochondrial mass", "setting": "HCT116 cells [2]", "result": "enhanced"},
      {"measurement": "cancer cell targetability", "setting": "[3]; immunoblotting, FIG. 5", "result": "excellent cancer cell targetability"},
      {"measurement": "disappearance from tumor", "setting": "[3]; [4]", "result": "gradually disappeared by day 3"},
      {"measurement": "time the tumor location was maintained", "setting": "[3]; [4]", "result": "up to 2 days"},
      {"measurement": "location of protein among organs", "setting": "[3]; tumor-bearing mice, intraperitoneal injection, His immunoblotting", "result": "located in tumor cells"},
      {"measurement": "growth of tumors which started to initially grow", "setting": "HCT116 xenografts; 20 μg/kg, intraperitoneal injection (FIG. 6A)", "result": "inhibited the growth of tumors"},
      {"measurement": "growth of actively growing tumors", "setting": "HCT116 xenografts; 20 μg/kg, intraperitoneal injection (FIG. 6B)", "result": "inhibited the growth"},
      {"measurement": "fold improvement of IC50 compared with rGRA8 (anti-tumor activity)", "setting": "HCT116 xenografts; HCT116 xenograft", "result": 500, "unit": "fold"},
      {"measurement": "IC50 (antitumor activity in xenograft)", "setting": "HCT116 xenografts; HCT116 xenograft mice, intraperitoneal", "result": 20, "unit": "µg/kg"},
      {"measurement": "tumor size and tumor growth", "setting": "HCT116 xenografts; HCT116 xenograft, effect dependent on PKCα, SIRT3, ATP5A1 and acetylation state of K506 and K531", "result": "a decrease in tumor size and delayed tumor growth"},
      {"measurement": "fold improvement of IC50 compared with rGRA8 (anti-tumor activity)", "setting": "HCT116 xenografts; HCT116 xenograft, listed as rATRAM-G8-M/AS", "result": "approximately 500 fold"},
      {"measurement": "ATP5A1 deacetylation level in tumor lysates", "setting": "ATP5A1, SIRT3 and ATP5C1", "result": "increased"},
      {"measurement": "binding of rGRA8 to ATP5A1, SIRT3 and ATP5C1 in vivo", "setting": "ATP5A1, SIRT3 and ATP5C1", "result": "significantly increased"},
      {"measurement": "mitochondrial protein biosynthesis level in tumor lysates", "setting": "ATP5A1, SIRT3 and ATP5C1", "result": "increased"}
    ]}
  ]
}
